Reference: the nanobody polyreactivity screen of Harvey et al. (2022)

Assay: yeast display, Sf9 membrane polyspecificity reagent, FACS + sequencing; frameworks hold sequencing errors
Method in brief: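 After 36–48 hours of galactose induction, yeast (Saccharomyces cerevisiae BJ5465) displaying a synthetic nanobody library were stained at 4 °C for 1 hour with 10% biotinylated, detergent-solubilized Sf9 membrane reagent. Streptavidin microbeads enriched the stained cells before FACS sorting into low and high (top ~1%) gates on anti-HA and streptavidin fluorescence. Each clone's polyreactivity label reflects its gate of origin.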

QVQLVESGGGLVQAAGSLRLSCAASGRTFSANAMGWYRQAPGKERELVATISSGGRTNYADSVKGRFTISRDNAKNTVYLQMNSLKPEDTAVYYCAKRGPYKRWYGRYDYCGQGTQVTVSS
polyreactivity (PSR sort gate): low polyreactivity

QVQLVESGGGLVQAGGSLRLSCAASGITFSYNAMGWYRQAPGKEREFVAAISSNSDSTYYADSVKGRFTISRDTAKITVYLQMNSLKPEDTAVYYCAADTPDAPDYSGFYYWGQGTQVTVSS
polyreactivity (PSR sort gate): low polyreactivity

QVQLVESGGGLVQAGGSLRLSCAASGFTFSVYAMGWYRQAPGKERELVADIDWSGGSTYYADSVKGRFTISRDNAKNTVYLQMNSLKPEDTAVYYCAADYYYPDSYVQGTSGEYWGQGTQVTVSS
polyreactivity (PSR sort gate): low polyreactivity

QVQLVESGGGLVQAGGSLRLSCAASGRTFGRYPMGCYRQAPGKERELVAAIRYSGSSTYYADSVKGRFTISRDNAKNTVYLQMYSLKPEDTAVYYCAKRYYGKDYWGQGSQVTVSS
polyreactivity (PSR sort gate): high polyreactivity

QVQLVESGAALVQAGGSLRISCAASGSTLDTNAMGRYRPAPGKERELVAAITFSGGTTYYADSVKGRFTISRDNAKNTVYLQMNSLKPEDTAVYYCAAEIWLEYVGYDYWGQGTQVTVSS
polyreactivity (PSR sort gate): high polyreactivity

QVQLVESGGGLVQAGGSLRLSCAASGFTFYSYAMGWSRQAPGKERELVAAISGGGGSTYYADSVKGRFTISRDNAKNTVYLQMNSLKPEDTAVYYCAKRPAYRGYGLGYYWGQGTQVTVSS
polyreactivity (PSR sort gate): high polyreactivity

QVQLVESGGGLVQAGGSLRLSCAASGRTFRKYAMGWYRQAPGKERELVAAISWSGGSTYYANSVKGRFTISRVNAKNTVYLQMNSLKPEDTAVYYCAAVPVDTGSLYWGFTTGYDYWGQGTQVTVSS
polyreactivity (PSR sort gate): low polyreactivity

QVQLVDSGGGLVQAGGSLRLSCAASGSTFTYYAMGWYRQAPGKERELVAAIRNSDGTTYYADSVKGRFTISRDNAKNTVYLQMNSLKPEDTAVYYCAAGPRGRWSTYDYWGQGTQVTVSS
polyreactivity (PSR sort gate): low polyreactivity

QVQLVESGGGLVQAGGSLRLSCAASGSTFYYYAMGWYRQAPGKERELVAAINYNGGSTHYADSVKGRFTISRDNAKNTVYLQMISLKPEDTAVYYCAAKYRLSYTHGYWGQGSQVTVSS
polyreactivity (PSR sort gate): low polyreactivity

QVQLVESGGGLVQAGGSLSLSCAASGFTYRLYTMGWYRQAPGKERELVAGISTSGGSTYYADSVKGRFTISRDNAKHTVYLQMNSLKPEDTAVYYCAAQAFTSYDYWGQGTQVTVSS
polyreactivity (PSR sort gate): high polyreactivity

QVQLVESGGGLVQAGGSLRLSCAASGRTFKRYAMGWYRQAPGKERELVAAITRSGGSTYYADSVKGRFTISRDNAKNTVYLQMNSLKPEDTAVYYCATRSYNNELEYWGQGTQVTVSS
polyreactivity (PSR sort gate): high polyreactivity

QVQLVESGGGLFQAGGSLRLSCAASGSTFYSYAMGWYRKAPGKERELVAAISRNGGYTYYADSVKGRFTISRDNAKNTVYLQMNSLKPEDTAVYYCAALRYVHGYDYWGQGTQVTGSS
polyreactivity (PSR sort gate): high polyreactivity

QDQLVESGGGLVQAGGSLRLSCAASGLIFFFYPMGWYRQAPGKERELVASISGGGITYYADSVKGRFTISRDNAKNTVYLQMNSLKQEDTPVIKNDYWGQGTQVTLSS
polyreactivity (PSR sort gate): low polyreactivity

QVQLVESGGGLVQAGGSLRLSCADSGRIFVAYAMGWYRQAPGKERELFADITWSGDITYYADSVKGRFTISRDNAKNTVYLQMNSLKPEDTAVYYCAADYHRRRTDYDYWGQVTQVTVSS
polyreactivity (PSR sort gate): low polyreactivity

QVQLVESGGGLVQAGGSLRLSCAASGFIFDLYAMGWYRQAPGKERELVAVISYDGGSTYYADSVKGRFTISRDNAKNTVYLQMNSLNPEDTAVYYCNTYAGLVSPSDLYDYWGQGTQVTVSS
polyreactivity (PSR sort gate): low polyreactivity

QVQLVESGGGLVQAGGSLRLSCAASGSILQVYAMGWYRQAPGKERELVAGISWGGGRTYADSVKGRFTISRDNAKNTVYLQMISLKPEDTAVYYCNKVWRFGYYGSYYWGQGTLVTVSS
polyreactivity (PSR sort gate): high polyreactivity

QVQLVESGGGLVQAGGSLRLSCAASGFIFTDYTMGWYRQAPGKERELVAAIDSSGGGTHYADSVKGRFTISRDNAKNTVYLQMNSLKPEDTAVYYCAAADYLIQFWYQYDYWGQGTQVTVSS
polyreactivity (PSR sort gate): low polyreactivity

QVQLVESGGGLVQAGGSLRLSCAASGSTTYAMGWYRQAPVKERELVAGITFSGGSTNYADSVKGRFTISRDNAKNTVYLQMNSLKPEDTAVYYCAAKLWHHSYRYDYWGQGTQVTVSS
polyreactivity (PSR sort gate): low polyreactivity

QVQLVESAGGLVQAGGSLRVICAASASTSVHNAMGWYRQAPGKERELVAAITSDGSTNYADSVKGRFTISRDNEKNTVYLLMYSLEPEDTAFYYCAALGWTYYVGYVSYSYGYWGQGTQVTVSS
polyreactivity (PSR sort gate): low polyreactivity

QVQLVESGGGLVQAGGSLRLSSAASGRIFSRNGMGWYRPAPGKERELVAAIRRYGGSTYYADSVKGRFTISRDNEKNTVNLQMNSLKAEDTAVFFCAAEPYGGGVKHSAYDYWGQGTQVTVSS
polyreactivity (PSR sort gate): low polyreactivity

QFQLVESGGGLVQAGGSLRLSCAASGITFYRYAMGWYRQAPGKERELVASISSRGSSTYYADSVKGRFTISRDNAKNTVYLQMNSLKPEDTAVYYCAKSRGSRGFVASTYNYWGQGTQVTVSS
polyreactivity (PSR sort gate): high polyreactivity

QVQLVESGGGLVQAGGSLRLSCAASGSIFFYYAMGWYRQAPGKERELVAAINSDGSTNYADSVKGRFTISRDNAKNTVYLQMNSLKPEDTAVYYCNADTPYYQGEYNYWGQGTQVTVSS
polyreactivity (PSR sort gate): low polyreactivity

QVQLVESGGGLVQAGGSLRLSCAASGNIFYAYDMGWYRQAPGKERELVAAITNGDSTDYADSVKGRFTISRDNAKNTVYLQMNSLKPEDTAVYYCNAYYLPEPWALGGSQYDYWGQGTQVTVSS
polyreactivity (PSR sort gate): low polyreactivity

QVQLVESGGCLVHAGGSLRLSCAAYGSILKYNAIGWYIQAPGKERELVAAITSRGGSTYYADSVKGRFTISRDNAKNTVYLQMNSLKPEDTAVYYCNRVYLGYFRYDYWGQGTQVTVSS
polyreactivity (PSR sort gate): high polyreactivity

QVQLQESGGGLVQAGGSLRLSCAASGSIFKVVDMGLYRQEPAKEREFVATIGEGGNTYYADSVKGRFTISRDNAKNTVFLQMNSLKPEDTAVYFYAVVLGTSYRYTYWGQGTQVTVSS
polyreactivity (PSR sort gate): low polyreactivity

QVQLQESGGGLVQAGGSLRLSCAASGYISHADEMGWYRQAPGKEHELVASISNGGSTNYADSVKGRFTISRDNAKNPVNLQMNSLKSEDTAVYYCAALTGQVAIHYYWGQGTQVTVSS
polyreactivity (PSR sort gate): low polyreactivity

QFQLVESGGGLVQARGSLRLSCAPSGSTFGYYTMGWYRQAPGKERELVAAISWSGGSTYYADSVKGRFTISRDNAKNTVYLQMNSLKPEDTAVYYCAALGYTYKYYSYYWGQGTQVTVSS
polyreactivity (PSR sort gate): high polyreactivity

QVQLVESGGGLVQAGGSLRLSCAASGIIFYYYAMGWYRQAPGKESELVADITYSGGSTYYADSVKGRFTISRDKAKNTVYLQMNSLKPEDTAVYYCAARVTVSHWPYYYDSSDYGGQGTQVTVSS
polyreactivity (PSR sort gate): low polyreactivity

QVQLVESGGGLVQAGGSLRLSCAASGFIFTTYAMGWYRQAPGKERELVAAISTSGGRTYYADSVKGRFTISRDNAKNTVYLQMNSLKPEDTAVYYCNTYSYYSYDWGQGTQVTVSS
polyreactivity (PSR sort gate): high polyreactivity

QVQLVESGGGLVQAGGSLRLSCAASGSTFGWYTMAWYRQAPGKERELVAAITSRGTRTSYADSVKGRFTISRDNAKNTVYLQMNSLKPEETAVYYCAARVFRGLGEYYWGQGTQVTVSS
polyreactivity (PSR sort gate): high polyreactivity

QVQLVESGGGLVQAGGSLRLSCAASGSTFVSYALGWYRQAPGKERDLVAAISRSGGSTYYADSVKGRFTISRDNAKNTVYVQMNRLKPEDTAVFYCAADCRGPSKRNRDYWGQGTEVTVSS
polyreactivity (PSR sort gate): high polyreactivity

QVQLVESGGGLVQAGVSLRLSCAASGFIFRPYTMGWYRLAPGKERELVAAISRSGDSTYYADSVKGRFTISRDNAKNTVYLQMNSLKPEDTAVYYCAAYYNGRVGPYYYWGQGTQVTVSS
polyreactivity (PSR sort gate): high polyreactivity

QVQLVESGGGLVQAGGSLRLSCAASGRTFVSNAMGWYRQAPGKERELVARITGSGGTTYYADSVKGRFTISRDNAKNTVYLQMNSLKPEDTAVYYCNADVFRKFGSPSAYKSHRYDYWGQGTQVTVSS
polyreactivity (PSR sort gate): low polyreactivity

QVQLVESGGGLVQAGGSLRLSCAASGYIFYDNAMGWYRQAPGKERELVAAISRSGSRTRYADSVKGRFTISRDNAKNTVYLQMNSLKPEDTAVYYCNTRYAKYYYWGQGTQVTVSS
polyreactivity (PSR sort gate): high polyreactivity

QVQLVESGGGLVQAGGSLRLSCAASGSTLSVNAMGWYRPAPGKERELVAAIDFDGGDTYYADSVKGRFTISRDNAKNNVYLQMNSLKPEDTAVYYCAADIGGQYDYLADDYWGQGTQVTVSS
polyreactivity (PSR sort gate): low polyreactivity

QVQLVESGGGLVQAGGSLRLSCAASGSTIYTYAMGWSRQAPGKERELVAAINRSGGTTYYADSVKGRFTISRDNAKNTVYLQMNSLKPEDTADYYCARRRYGYDYWGQGTQVTVSS
polyreactivity (PSR sort gate): high polyreactivity

QVQLVESGGGLVQAGGSLRLSCAASGFIFYYNTMGWYRQATGKESELVDSITWSGDTTYYADSVKGRFTISRDNAKKTVYLQMNSLKPEDTAVYYCAAVHYYPYRRYDYWGQGTQVTVSS
polyreactivity (PSR sort gate): low polyreactivity

QVQLVETGGVLVQAGGSLRLSFAASGIIFSISALGGYRQAPGKERELVAAITYSGGRTYYADSVKGRFTISRDTAKNTVYLQMNSLKPEDTAVYYCAADYYYYGSYYPVEYWGQGTQVTVSS
polyreactivity (PSR sort gate): high polyreactivity

HVQLVESGGGLVQAGGSLRLSCAASGSIFYGNTMGWYRQAPGKEREFVAAINKSDDSTYYADSVKGRFTISRDNAKNTVYLQMNSLKPEDTAVYYCWGPGTQVTVSS
polyreactivity (PSR sort gate): low polyreactivity

QVQLVESGGGLVQAGGSLRLSCAASGRIFDSNALGWYRQAPGKERELVAAISYDGGSTYYADSVKGRFTISRDNAKNTVYLQMNSLKPEDTAVYYCAADDGWYYYYGYDYWGQGTQVTVSS
polyreactivity (PSR sort gate): low polyreactivity

QVQLVESGGGLVQAGGSLRLSCAASGSIFKRNAMGWYRQAPGKERELVAAITGGGRTNYADSVKGRFTISRDNAKNTVYLQMNSLNPEDTAVYYCAADWYGVGLYYTWTRHDYWGQGTQVTVSS
polyreactivity (PSR sort gate): low polyreactivity

QVQLVESGGGLVQAGGSLRLSCDASGFTFYYYAMGWYRPAPGKERELVAAISSSGSSTYYADSVKGRFTISRDNAKNTVYLQMNSLKPEDTAVYYCNARRYEYLWGDYWGQGTQVTVSS
polyreactivity (PSR sort gate): high polyreactivity

QGQLVESGGGLVQAGGSLRLSCAASGRIFRGYAMGWYRQGPGNEREWVAAFSRRGGSTYYADSVKGRFTISRDNAKNTVYLQMNSLKPVDTAVYYCNADGVHYVAYAGGYWGQGTQVTVSS
polyreactivity (PSR sort gate): high polyreactivity
